Laboratory results reported in patent publication US20150079071A1 (University of California, published 2015).
Blank lines part the entries; values can stand above or below the binder they belong to.

Legend:
[1] = target: T1, heat-shock protein 90β (HSP90β), endogenous, in conditioned medium of SCp2 cells (mouse, UniProt P11499 2-724); test: reverse co-IP of HSP90β protein complexes from CM of control SCp2 cells, Western blot
T1 construct: also called HSP90b; extracellular HSP90β
Method: For co-IP of HSP90β protein complexes, CM was incubated with 10 μg of control rabbit IgG or anti-HSP90β antibody for 16 h at 4° C. Precipitation was performed with protein G sepharose beads (17-0618-01, GE Healthcare) for 4 h at 4° C. The beads were then washed three times with 0.05% Tween/PBS, and the immune complexes were directly eluted with electrophoresis sample buffer and analyzed by Western blotting.

[2] = target: T2, Itgb1 (endogenous mouse integrin-beta1 of EpH4 mammary epithelial cells) (mouse, UniProt P09055 21-798); test: anti-FLAG M2 bead IP from EpH4 lysate, Western blot for Itgb1
T2 construct: Endogenous protein in EpH4 cell lysate; also called integrin-β1
Description: FIG. 14. […] The heat map indicator is presented to show the intensity of the FRET signal. (iv) Quantification of FRET signals. ˜200 FRET signals were quantified on each condition. Data are mean+/−S.E., (****) indicates p<0.001. […] Immuno-complexes are used for IP-WB analysis.

T1 sequence (P11499 2-724 limits assumed): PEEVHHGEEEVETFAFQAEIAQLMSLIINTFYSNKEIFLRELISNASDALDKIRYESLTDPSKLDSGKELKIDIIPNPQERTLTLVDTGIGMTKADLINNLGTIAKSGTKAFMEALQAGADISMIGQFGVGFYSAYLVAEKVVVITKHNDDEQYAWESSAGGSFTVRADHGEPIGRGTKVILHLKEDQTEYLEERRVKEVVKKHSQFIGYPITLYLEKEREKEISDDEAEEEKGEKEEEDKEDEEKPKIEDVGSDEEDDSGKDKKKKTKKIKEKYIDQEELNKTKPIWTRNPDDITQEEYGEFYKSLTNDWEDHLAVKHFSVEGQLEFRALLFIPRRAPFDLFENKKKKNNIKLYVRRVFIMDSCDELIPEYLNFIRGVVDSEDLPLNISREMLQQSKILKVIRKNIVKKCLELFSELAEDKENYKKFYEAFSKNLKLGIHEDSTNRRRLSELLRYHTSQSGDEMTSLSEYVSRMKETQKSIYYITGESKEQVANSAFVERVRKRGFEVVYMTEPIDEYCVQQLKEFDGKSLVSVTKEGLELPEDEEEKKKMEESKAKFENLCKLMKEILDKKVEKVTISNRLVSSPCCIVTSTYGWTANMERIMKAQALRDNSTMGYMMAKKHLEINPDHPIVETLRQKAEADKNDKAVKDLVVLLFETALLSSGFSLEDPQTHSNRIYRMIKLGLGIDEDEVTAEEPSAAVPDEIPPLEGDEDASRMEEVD
T2 sequence (P09055 21-798 limits assumed): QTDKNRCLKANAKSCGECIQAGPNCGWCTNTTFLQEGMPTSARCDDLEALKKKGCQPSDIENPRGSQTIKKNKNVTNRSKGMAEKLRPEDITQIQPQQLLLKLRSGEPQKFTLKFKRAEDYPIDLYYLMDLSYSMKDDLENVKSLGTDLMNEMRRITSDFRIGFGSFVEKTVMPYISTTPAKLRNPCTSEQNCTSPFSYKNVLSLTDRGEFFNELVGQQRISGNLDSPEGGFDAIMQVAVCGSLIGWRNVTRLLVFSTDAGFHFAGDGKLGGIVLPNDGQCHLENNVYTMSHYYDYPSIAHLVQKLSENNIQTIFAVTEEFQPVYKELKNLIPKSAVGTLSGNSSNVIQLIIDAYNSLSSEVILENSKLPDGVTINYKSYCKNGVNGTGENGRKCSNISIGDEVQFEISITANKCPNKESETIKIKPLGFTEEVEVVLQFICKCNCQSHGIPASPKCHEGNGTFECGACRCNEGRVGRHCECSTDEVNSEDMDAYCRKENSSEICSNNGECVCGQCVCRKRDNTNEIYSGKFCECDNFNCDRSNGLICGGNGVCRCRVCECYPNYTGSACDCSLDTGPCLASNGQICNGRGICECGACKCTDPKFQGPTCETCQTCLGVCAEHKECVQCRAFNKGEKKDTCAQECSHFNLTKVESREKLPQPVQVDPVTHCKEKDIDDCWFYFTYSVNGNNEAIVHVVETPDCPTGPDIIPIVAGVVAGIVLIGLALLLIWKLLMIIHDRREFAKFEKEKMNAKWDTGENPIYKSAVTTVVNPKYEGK

- binding result [1]: no binding
B1: annexin A2 (ANXA2), endogenous, in conditioned medium of SCp2 cells (other, mouse, UniProt P07356 2-339, looked up)
chain: STVHEILCKLSLEGDHSTPPSAYGSVKPYTNFDAERDALNIETAVKTKGVDEVTIVNILTNRSNVQRQDIAFAYQRRTKKELPSALKSALSGHLETVILGLLKTPAQYDASELKASMKGLGTDEDSLIEIICSRTNQELQEINRVYKEMYKTDLEKDIISDTSGDFRKLMVALAKGRRAEDGSVIDYELIDQDARELYDAGVKRKGTDVPKWISIMTERSVCHLQKVFERYKSYSPYDMLESIKKEVKGDLENAFLNLVQCIQNKPLYFADRLYDSMKGKGTRDKVLIRIMVSRSEVDMLKIRSEFKRKYGKSLYYYIQQDTKGDYQKALLYLCGGDD

- binding result [1]: no binding
B2: myristoylated alanine-rich C-kinase substrate (MARCKS), endogenous, in conditioned medium of SCp2 cells (other, mouse, UniProt P26645 2-309, looked up)
chain: GAQFSKTAAKGEATAERPGEAAVASSPSKANGQENGHVKVNGDASPAAAEPGAKEELQANGSAPAADKEEPASGSAATPAAAEKDEAAAATEPGAGAADKEAAEAEPAEPSSPAAEAEGASASSTSSPKAEDGAAPSPSSETPKKKKKRFSFKKSFKLSGFSFKKSKKESGEGAEAEGATAEGAKDEAAAAAGGEGAAAPGEQAGGAGAEGAAGGEPREAEAAEPEQPEQPEQPAAEEPQAEEQSEAAGEKAEEPAPGATAGDASSAAGPEQEAPAATDEAAASAAPAASPEPQPECSPEAPPAPTAE

- binding result [2]: no binding
B3: MMP14F-dCAT (FLAG tagged human MMP14, catalytic domain deleted mutant, deletion of Tyr112-Pro312) (enzyme)
chain: not shown
notes: also called MMP14dCAT; not shown: FLAG tag
